Experimental data taken from US20260028402A1 (published 2026).
Read-outs that look alike come from different tables or passages of the source.

What was measured:
[1] = molecular target: CynoCD100-HEK293 (cynomolgus monkey); assay: FACS
[2] = molecular target: CynoCD100-HEK293 (cynomolgus monkey); assay: FACS; remark: listed apart in the source
[3] = molecular target: CynoCD100-HEK293 (cynomolgus monkey); assay: FACS; remark: listed apart in the source
[4] = molecular target: T1, full-length human CD100 protein HuCD100 on cells (human, UniProt Q92854 22-862); assay: FACS
[5] = molecular target: T2, HuCD100-His (human, UniProt Q92854 22-734); assay: ELISA
[6] = molecular target: T3, MusCD100-His (mouse, UniProt O09126 24-733); assay: ELISA
T3 chain: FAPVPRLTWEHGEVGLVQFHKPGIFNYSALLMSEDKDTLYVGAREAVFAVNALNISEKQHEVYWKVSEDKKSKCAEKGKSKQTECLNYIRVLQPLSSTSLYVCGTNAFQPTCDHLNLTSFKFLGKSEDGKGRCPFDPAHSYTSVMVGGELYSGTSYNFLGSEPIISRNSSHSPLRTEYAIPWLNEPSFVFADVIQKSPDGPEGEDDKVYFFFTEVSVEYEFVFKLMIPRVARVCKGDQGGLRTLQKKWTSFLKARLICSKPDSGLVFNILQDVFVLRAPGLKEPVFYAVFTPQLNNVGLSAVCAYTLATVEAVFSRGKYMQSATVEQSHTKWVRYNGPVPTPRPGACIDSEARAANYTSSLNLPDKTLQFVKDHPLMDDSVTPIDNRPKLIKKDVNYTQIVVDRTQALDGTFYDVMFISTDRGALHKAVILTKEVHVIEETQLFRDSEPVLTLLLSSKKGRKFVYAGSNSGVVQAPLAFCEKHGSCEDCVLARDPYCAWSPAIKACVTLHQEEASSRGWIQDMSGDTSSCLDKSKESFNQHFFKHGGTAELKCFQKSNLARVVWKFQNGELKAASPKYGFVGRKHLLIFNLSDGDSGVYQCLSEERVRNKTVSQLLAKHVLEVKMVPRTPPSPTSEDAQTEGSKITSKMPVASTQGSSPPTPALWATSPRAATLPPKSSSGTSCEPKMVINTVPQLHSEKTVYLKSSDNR

[7] = molecular target: T4, MusCD100-Fc (mouse, UniProt O09126 24-733, biotinylated in the Plexin binding and blocking assays (sites not given)); assay: ELISA
T4 chain: T3 chain

[8] = molecular target: CynoCD100-Fc (cynomolgus monkey); assay: ELISA
[9] = molecular target: CynoCD100-His (cynomolgus monkey); assay: ELISA
[10] = molecular target: T3, MusCD100-His; assay: ELISA; FIG. 5E
[11] = molecular target: T2, HuCD100-His; assay: ELISA; FIG. 5A
[12] = molecular target: T1, full-length human CD100 protein HuCD100 …; assay: FACS; HuPBMC cells
[13] = molecular target: Human Semaphorin 4D/SEMA4D/CD100 Protein, Fc Tag (Acro, CD0-H5257) (human, UniProt Q92854 22-734); assay: ELISA; last HuCD100-Fc row
[14] = molecular target: T5, HuCD100-Fc (in-house prepared) (human, UniProt Q92854 22-734, biotinylated in the Plexin binding and blocking assays (sites not given)); assay: ELISA; first HuCD100-Fc row
[15] = molecular target: T5, HuCD100-Fc (in-house prepared); assay: FACS blocking; HuPlexin-B1-HEK293, FIG. 12A
[16] = molecular target: T5, HuCD100-Fc (in-house prepared); assay: FACS blocking; HuPlexin-B2-HEK293, FIG. 12C
[17] = molecular target: T5, HuCD100-Fc (in-house prepared); assay: FACS blocking; blocking of binding to HuPlexin-B1-HEK293
[18] = molecular target: T5, HuCD100-Fc (in-house prepared); assay: FACS blocking; FIG. 8B, blocking of binding to HuPlexin-B2-HEK293

B1: Pepinemab (antibody, V domains shown)
VH: QVQLVQSGAEVKKPGSSVKVSCKASGYSFSDYYMHWVRQAPGQGLEWMGQINPTTGGASYNQKFKGKATITVDKSTSTAYMELSSLRSEDTAVYYCARYYYGRHFDVWGQGTTVTVSS
VL: DIVMTQSPDSLAVSLGERATINCKASQSVDYDGDSYMNWYQQKPGQPPKLLIYAASNLESGVPDRFSGSGSGTDFTLTISSLQAEDVAVYYCQQSNEDPYTFGQGTKLEIK
EC50 [1]: 0.365 nM | EC50 [2]: 0.132 nM | EC50 [3]: 0.271 nM | EC50 [4]: 0.138 nM | EC50 [5]: 0.0804 µg/mL | EC50 [6]: 0.174 µg/mL | EC50 [7]: 0.136 µg/mL | EC50 [8]: 0.388 µg/mL | EC50 [9]: 0.128 µg/mL | EC50 [10]: 0.143 nM | EC50 [11]: 0.0383 nM | EC50 [12]: 0.412 nM | EC50 [13]: 0.0659 µg/mL | EC50 [14]: 0.0469 µg/mL | IC50 [15]: 0.896 nM | IC50 [16]: 1.45 nM | IC50 [17]: 3.56 nM | IC50 [18]: 0.766 nM
